Results reported in patent publication US11338018B2, “Adrenocorticotropic hormone-based pharmaceutical formulations and methods for fabricating and using thereof” (Harrow IP, LLC, priority 2016, dated 2022).

Test: Comparative potency (USP corticotropin units) to assess formulation shelf stability
Assay type: physicochemical
Design: key to Potency: “Failed” refers to the potency after the testing being outside of the USP Corticotropin Units 80-125% range required by the U.S. Pharmacopeia.; “Passed” refers to the potency after the testing being within the 80-125% range required by the U.S. Pharmacopeia
Procedure: The term “potency” is defined in accordance with the U.S. Pharmacopeia (USP) and refers to the quantity of an active pharmaceutical component in the composition. In accordance with the requirements of the USP, the potency that is required of the corticotropin compositions described below is not less than 80.0 percent and not more than 125.0 percent of the potency stated on the label in USP corticotropin units.
Several compositions were prepared according to the methods illustrated in Examples 1-3. Table 1 provides a comparison of their respective potencies for showing shelf stability. The terms “recombinant porcine” and “recombinant human” refer to synthetic ACTH having the same amino acid sequence as the naturally occurring polypeptide derived from pigs and humans, respectively. […] Unexpectedly, it was observed that addition of L-Methionine in combination with Mannitol improved the shelf stability of Corticotropin Active Pharmaceutical Ingredient. FIGS. 1-4 show potencies of various exemplary compositions from Day 0 to Day 365.

Row | Sequence | Potency (Cysteine, 2 mg/mL, Mannitol 50 mg/mL, pH 4.5-6.5, after 60 days) | label amount remaining intact (Cysteine, 2 mg/mL, Mannitol 50 mg/mL, pH 4.5-6.5, day 90) | Potency (Methionine, 2 mg/mL, Mannitol 50 mg/mL, pH 4.5-6.5, stable after 180 days) | Potency (Cysteine, 1 mg/mL, Mannitol None, pH 4.5-6.5, after 30 days) | Potency (Cysteine, 2 mg/mL, Mannitol 50 mg/mL, pH 4.0-6.0, after 10 days, both accelerated (room temperature) and refrigerated conditions) | Potency (Cysteine, 2 mg/mL, Mannitol 50 mg/mL, pH 4.5-6.6, after 30 days) | Potency (Methionine, 2 mg/mL, Mannitol 50 mg/mL, pH 4.0-6.0, after 10 days, both accelerated (room temperature) and refrigerated conditions) | Potency (Methionine, 3 mg/mL + POLOXAMER 188, 3 mg/mL, Mannitol 50 mg/mL, pH 5.0-6.5, stable after 360 days) | Potency (Methionine, 3 mg/mL, Mannitol 50 mg/mL, pH 4.0-6.0, stable after 365 days)
1 | SYSMEHFRWGKPVGKKRRPVKVYPNGAEDESAEAFPLEF [Recombinant human] | Failed after | ^3Followed by even more substantial failure by day 90 (when only about 16.9% of the label amount remaining intact). | Passed^4, (“Passed” refers to the potency after the testing being within the 80-125% range required by the U.S. Pharmacopeia.) | – | – | – | – | – | –
2 | SYSMEHFRWGKPVGKKRRPVKVYPNGAEDELAEAFPLEF (Sythetic construct) [Synthetic porcine] | – | – | – | Failed^1 after | Failed after | Failed after | Failed after | Passed, (“Passed” refers to the potency after the testing being within the 80-125% range required by the U.S. Pharmacopeia.) | Passed, (“Passed” refers to the potency after the testing being within the 80-125% range required by the U.S. Pharmacopeia.)
